This series in a line: label from the status in PepcDB records.
As to “MDDNTKELEQYWDEFSQEYEEIQNESLVDIGQQLKEFLLAEKLLPTSQFLDLAGGTGKYIPHFSNFTDSYHLVDLSAKMLEFAKNKSADSNKITFTHQEQNKFLKNTKENTYDFVFSAMNPALESKEALVELNRIANGNVGILRLIFDEDNLFSQVEQLYLPNQEQNKEAQMLLYKVWLEELGWEFKSKKFRFFLSEKVSSQFFSDYFSDELSNAELAALTQLFFSETEIREMERLVIFELLYWEKC”, the protein production result is “failed”.

On to “MDEEIDTRKINNSFLRDHNYATEADIISTVEFNPTGELLATGDKGGRVVVFQREQESKNQPHRRGEYNVYSTLLKDWIMLIKTHRKNFRRKGKQLGFKCGSIY”, for which the protein production entry was “failed”.

Take “MDEISTGMLLVILAVLLFLSAYFSGSETGMMSINRYRLRHLVQNNHPGAKRVQYLLDRPDRLIGLILIGNNLVNIGASAIATILCLRWFGDAGIVIATFGLTLIILIFSEVTPKTIAALHPERISFPSSLILMPLLKVMYPIVIGMNFITNSFMRLLGVNPKQSQMADALSSDELRTVVNEAGNLIPTSHQEMLVSILDLEKVTVEDVMVPRNEIVGIDISDDWKSIVKQLSNGQHTRVLLYRNEIDDAIGFLHARDIMRLMSKNQFTADKSILVRAARDSYFIPEGTPLNVQLLKFQRRKERIGLVVDEYGDIQGLVTLEDILEEIVGDFTTSMAPAPSESVTLETDGSFLVDGSANLRELNKEMNWDFPTDGPKTLSGLIIEQFGDIPDARLSLRLGGYPVELVEIGDTMIKQIRVFPELYQKPDNQTND”: the protein production entry is reported as “failed”.

Regarding “MDEQSVESIAEVFRCFICMEKLRDARLCPHCSKLCCFSCIRRWLTEQRAQCPHCRAPLQLRELVNCRWAEEVTQQLDTLQLCSLTKHEENEKDKCENHHEKLSVFCWTCKKCICHQCALWGGMHGGHTFKPL”, the protein production result is on record as “failed”.

Regarding “MDERRFFRDVCAEWMEQYRLTVRESTLEKTQRIINIHVLPAFGDMVINNITPNVCQKVVNKWFLEAKSYKKWLNYASMIFDYALRAEYVGRNPCTLVTMPRVQEQAGEKLEHHHHHH”, the protein production entry is given as “failed”.

Regarding “MDEVNVIARITGVSRVRTFERDGREGRFISLDIMDATGSTTYTLWNNDVNLVEELGLKEGDAVKILWAQPRRRDDKVTLTHTSLTRVVPGLEHHHHHH”, the protein production result is given as “failed”.

With “MDFAHLDQQLRDSVLDLKLSNEERDELRQLGSELGQDQVRYMRNRAFDLVRELALADSVNVLPALKWLEQVIKTLDANSAPVRDMASAHFSPGEDCRRKIRDLCRQARISVDICVFTISDDQLSDEIRACHQRGVAVRVISDSEKQFDVGSDIAALREAGVPVRIDDTPFHMHHKFAVFDGRTLLNGSFNWTRSATTGNEENLLVIDHPQLVASYLKEFNELWSRYAPR”, the protein production result is recorded as “failed”.

As for “MDFESNGAMMEYCKSTGRTYCAFSIQQSSKLLGTVVLELFTDIAPATCANFIKYIKDGYQGTPLHRIVPNGWVQGGDIVDGSGKGDPGFVLPDETYSVKHDAPGVLGMATGGQPHTANTQFYISLSPLPFLDGKRVAFGRVLNKQSLENLLALQTLPTFQNERPVPDVVIASCHVIYNPNS”, the protein production entry is listed as “failed”.

On to “MDGAQPKTNFFERLIARLAREPDSAEDVLNLLRQAHEQEVFDADTLTRLEKVLDFAELEVRDAMITRSRMNVLKENDSIERITAYVIDTAHSRFPVIGEDKDEVLGILHAKDLLKYMFNPEQFHLKSVLRPAVFVPEGKSLTALLKEFREQRNHMAIVIDEYGGTSGLVTFEDIIEQIVGDIEDEFDEDESADNIHSVSAERWRIHAATEIEDINAFFGTEYGSEEADTIGGLVIQELGHLPVRGEKVLIGGLQFTVARADNRRLHTLMATRVK”, for which the protein production entry is “failed”.

Take “MDGASRENPGLAAAGGAVRDGNENWVGVFALNIEICSAPLAELWGLYYGLHIVWEQGITRLELEVDSKIVVGFLQTGIPDSHPLSFLLRLCYGFISRDWLVRISHVYREVNRLADGLANYAFSLPLGLYVFNSVPDSIASFVLEDARMLEEYRMKFWLLEDLGLRHCGNVKANGFHRVSAYPREKSHGRHRLYVLHY”: the protein production result was “failed”.

Take “MDGDGSSFEQFIMPPSALDRLASLHIEYPMLFQLSNVSVEKTSHCGVLEFTADEGLVYLPYWMMQNMSLEEGDVMQVKNISLVKGTYIKLQPHTQDFLDISNPKAILETTLRSYSCLTTGDTIMVPYNNKQYYINVVEAKPSSAVSIIETDCEVDFAPPLDYKEPEKPQKLTPSNKRPLQVKEEEEPASKVPKFTPFTGSGKRLDGKAQTQTEPEDTKQQEKPTENGKDDEKLSVTTPRQISGKLVFGSNSKSAAKETAKVDDPKNIVQESSTKSDEAKFKVFTGKKYSLNG”: the protein production entry is given as “failed”.

Take “MDGRMDATTRMTLSVGALMFRMIWFPAPHWTHAARMTASTFRRYGFGLLSLVLLVLPSRLAAQDYEVPTVTDTYALQNARVVQAPGQVLESATVVVRDGVIDAVGPDAEVPYDARTIEADSLVVYAGFIDGLSHAGVEMPEGEDTDVEDPGNPPPDAAGIQPDRSVRPFLSPDESALQSLRKAGFTLGHVAPEGQMLPGASAHVFYGGETANDMVLEAGPTLFAQLQTADGYVYPATGMAVIAQMRQLYREAERRQQLEAAYERDPTGRPQPPQDPQHSALFSVLDGEQPLAFYADEALSLHRILALHQELDFPLVLAGLGESHELVDALQAVDAPLFLTLDLPEEPTRSTGQDTTTADTTSTPSRYYNPDLQVPSHETVAEEEENLELRHAMERQDYLETAATLHDAGLEFGFTTREADPGDVRGNLRTMIDQGLPEQTALAALTTRPAAQLGLDDRLGTVEAGKIANLVVTDGSYFAEDTKVTHVFVDGRLYDYSADGSDEGEVSGDVSAVLGTWSYTLDTPQGELSGEVTIEGDQSGLDGTFVGPQGDEQPLQSVSFDGTTLSFTVDSPQGGSVSVSVTVEGDTFDGSASTSGGSFPISGERTSGPNATQK”: the protein production result is given as “failed”.

Consider “MDGTEIAVSPRSLHSELMCPICLDMLKNTMTTKECLHRFCSDCIVTALRSGNKECPTCRKKLVSKRSLRPDPNFDALISKIYPSREEYEAHQDRVLIRLSRLHNQQALSSSIEEGLRMQAMHRAQRVRRPIPGSDQTTTMSGGEGEPGEGEGDGEDVSSDSAPDSAPGPAPKRPRGGGAGGSSVGTGGGGTGGVGGGAGSEDSGDRGGTLGGGTLGPPSPPGAPSPPEPGGEIELVFRPHPLLVEKGEYCQTRYVKTTGNATVDHLSKYLALRIALERRQQQEAGEPGGPGGGASDTGGPDGCGGEGGGAGGGDGPEEPALPSLEGVSEKQYTIYIAPGGGAFTTLNGSLTLELVNEKFWKVSRPLELCYAPTKDPK”, for which the protein production result is “failed”.

Turning to “MDGTVTPSPITTAMPPVSALDAGTPTLPPEAPLAMPEQNLREGSLQVRHQRTSPPGIGVRRFYLIGGTFATTAIAVWVMLSVLWPDGISVLEGCLLGLFVLLFAWIAMSFASAVAGFVTVVARAGRKLGIDPEQPLPTLRSRTALLMPTYNEDPRRLLAGLQAIYESVAETGQLEHFDFFVLSDTTREHIGRAEELVYNALCDRVGGHGRIFYRRRADNAARKAGNVADWVRRFGGSYPQMLILDADSVMTGDTIVRLVAGMENNPDVGLIQTLPAVVNGQTLFARMQQFGGRVYGPIIAFGVAWWHGAESNYWGHNAIIRTQAFADHAGLPSLRGRKPFGGHVLSHDFVEAALMRRGGWAMHMVPYLQGSYEEGPPTLTDLLIRDRRWCQGNLQHAKVVGAKGLHWISRMHMLIGIGHYFTAPMWGLLMLIGIGIPLAGGDIDLAGDLPFSPARYWHGSSQGNAIWIFVCTMFVLLAPKLLGYIALLLNPRELRACGGAFRAAVSILLETVLAALMAPVVMYLQSRGVFEVLAGKDSGWDAQVRDDGKLSWPALLRSYGGLTVFGLFMGAVAYAVSPALAAWMGPVIVGMALSIPVVALTSLRRTGMALRRAGIFCIPEELDPPKVLVRASELRRAAALEPSLI”, the protein production entry is reported as “failed”.

Turning to “MDGVFRLLLGRFIQRGTIIFTTAGGTTFTCGDGTGEQVHARLTSPLAQRRLLLDPELALGEIYMDGGLVMQQGSIADLLAVAMGQPDWTPRWAKLHGLVRYWIRTLHQFNPRSRSRNNVAHHYDLDGRLYALFLDSDKQYSCAYFETPDANLDDAQLAKKRHVAAKLLTTPGQRVLDIGSGWGGLGLYLAETCGADVTGVTLSREQLQAANTRAAERGLADRARFLLQDYRDVPGPFDRIVSVGMFEHVGVDHYDTYFRRCAELLKDDGVMLLHSIGRSEGPGFTNPWIAKYIFPGGYLPALSEVLPAIERAGLLVCDIEILRLHYAETLKAWRERFLAHREEAERLYDARFVRMWEFYLAASEMSFRKQNTMVFQIQLTRRQGVVPITRDYIAAEEKRLRGMEKSRTPRLQLAGE”, the protein production entry is “failed”.

With “MDHVHKSTTTDEDERNSGRAIDRHNPIIKDGRRSFADDFIKLPTSAEDGEMSNKKLEIYKGRRSITGRRSTGGGGGGGAAALLKLITNDIGLARKSFSCVARPACDLIKTPVGSTRYLLGSDPDSITGSVDQDPAKTVEAEAPAGEDKTLTEKKTTCGDTDQVSCFVVSIMSGINVNKW”, the protein production entry was “failed”.

Regarding “MDHYLRWRKRQKLLADFGEFALSNDNLADILTEACRLVGNALGTQRANVLEIEPSKRSLFVRAGVGLDDGIVGKLRLPMREIASERFSPDGSPLDIIHDVHTEPQYDLAAFMEVAGVVALVNVPILLPGRTLYGLLQVESSEPREFSQDDVEFLRTYSTILGPVIDRLNKVRALRDAEERFRLIVEAAR”, the protein production result is on record as “not failed”.

For the sequence “MDIAGYLSFFFASFTTLFIIIDPPGNLPIFIALTERFSDEYREKISKRATIIAFLILFITMVTGGKILDYFGVSISSLKIAGGILLFISSVDILLGGTRREAYKRRAEESIDVDSIAVFPLALPLYTGPGAITAGIVLYSQAGDVVMKLLVVLSAALVYSIVRLSHIYSAPIIRLLGRSGADIAARILAIFLAAIAVEFVFDGLAEKLVSMDL”, the protein production result is on record as “failed”.

As to “MDIKRYCPVTDSELPADHVYFKFRSEIEAAEAYLGLAISEGIKVRETREILDIIDTVYNSLSDPESKLNDFQEKRLNFTEEDWYDIKEKANNGNRWSLYMFLARSAVDSAVYWSYRMKETEEFKEIVKEEMISKLLKAGYVILRESLGEVRL”, the protein production entry is “not failed”.

Consider “MDIKSETEQYKRKAEIEKHTKEPNKHRDEAVLQNRAGRHRDRAVIDHKSEERERESVQNVTEMSGIERSEGEWSPPVEGITDEELPSHSPMDDLGFALFASWGRKTERQRMGSPDIRIYIFNPIKKIIIMETRIRFGLEWKPSGFGS”, for which the protein production result was “failed”.

Turning to “MDINIGTTHKVFHVLSKIGPAWIVMMADVDVASIITGLQSGAEFGFHMIFVMLILIPPLFIVQNAAGYLGIYSGMGVGEAIRQRYGRRLALLAAIPMASTDILSYIAEYSGIAIGLYMVGVSPYISVPVVFVIHNLIVLMRRYGRIESILMIVSVGLVLFIIVSVALMKPSWHSVILTGLNPIQPYGNHDFDIMIIANLGAIIMPFMIFYQAGASVQKSLLDQDIKISRNETAIGSIVSEVLMVMIVIAGTFIGGYATEPKMLAAALLPFGTYAYYITAAGFVTAGFLALIVISLASSWGIAEALGWKLYSGRRRGMHKAQMKGLTEERSDCDRRKFIYLYMGESIPAAAIALSFSAYLLPLVIDLMIVFVLVLAPVGVLLGLLVSDQKIMNGHRLSKRYMALFWFTLAIIEIAGLYSIITSI”, the protein production result is on record as “failed”.

On to “MDISLLSTTSDPEQLRALAIAMVQKVMAENAELQNRIRILEEQMKLARQQRFGKKCESLAGMQRSLFEEDVDADIAEISAHLDKLLPQTGDEEKTTTRPVRKPLPSPLPRAEKVIPPAEERCPDCDAPLHFIRDEVSEKLEYIPAQVVVNRYIRPQYSCPCCEKVFSGKMPAHILPKSAVEPSVIAQVVISKYTDHLPLYRQQHIFSRMGVELPVSTMADMVGVAGAALAPLAKLLRHELLTRDVIHADETSLRLLDTRKGGKSCSGWLWAYVSGERVSVNGAPY”, for which the protein production result is on record as “failed”.
